Results taken from CN116554335A.

Biological target: T1, 合成的G6PC多肽 (synthetic G6PC immunogen peptide, sequence range 80-120aa) (human) (UniProt P35575)
T1 sequence (peptide, looked up): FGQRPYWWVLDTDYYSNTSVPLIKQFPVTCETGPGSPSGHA
Test: indirect ELISA, serial two-fold dilution of the antibody; coating antigen not stated (taken to be the immunogen peptide)

抗体效价 (ELISA titer): 1.2e+07
B1: 兔单克隆抗体OTIR5G10 (rabbit anti-human glucose-6-phosphatase (G6PC) monoclonal antibody OTIR5G10) (antibody, V domains shown)
VH: QSVEESGGRLVTPGTPLTLTCTVSGADLSTYGVIWVRQAPGKGLEYIAAIVSGGRPYYRHWAKGRFTISKTSSTTVELKITSPTTEDTATYFCVLGNLWGQGTLVTVSS
VL: AQVLTQTASPVSAAVGGTVTINCQASQSVYSNNYLSWFQQKPGQPPKQLIYRASKLASGVSSRFKGSGSGTQFTLTISDVQCDDAATYYCLGGYDCSSADFGGGTEVVVK
